Test results from paper PMC10247848.

Key:
[1] = Western blot, total hG6Pase-α in HeLa lysates, 24 h; settings: glycan lost; control: wild type
[2] = Pi release from G6P in HeLa lysates, 24 h; settings: glycan lost; control: wild type

B1: human glucose-6-phosphatase-α (hG6Pase-α): N96A (protein)
parent chain: MEEGMNVLHDFGIQSTHYLQVNYQDSQDWFILVSVIADLRNAFYVLFPIWFHLQEAVGIKLLWVAVIGDWLNLVFKWILFGQRPYWWVLDTDYYSNTSVPLIKQFPVTCETGPGSPSGHAMGTAGVYYVMVTSTLSIFQGKIKPTYRFRCLNVILWLGFWAVQLNVCLSRIYLAAHFPHQVVAGVLSGIAVAETFSHIHSIYNASLKKYFLITFFLFSFAIGFYLLLKGLGVDLLWTLEKAQRWCEQPEWVHIDTTPFASLLKNLGTLFGLGLALNSSMYRESCKGKLSKWLPFRLSSIVASLVLLHVFDSLKPPSQVELVFYVLSFCKSAVVPLASVSVIPYCLAQVLGQPHKKSL
expression_or_secretion, percent_of_wt [1]: no change, 109.0 ± 16.9 vs 100.0 ± 8.2 | enzymatic_activity, percent_of_wt [2]: abolishes, 0.9 ± 0.8 vs 100 ± 21.6
